Measured values: publication PMC7173943

How the values were obtained:
[1] = molecular target: CXCR4(D187C)-T4L (UniProt P61073); assay: cross-linking + pull-down; disulfide cross-linking: Cys mutants co-expressed in Sf9 cells; membranes solubilised in DDM/CHS; TALON metal affinity pull-down by the receptor His tag; non-reducing SDS-PAGE and Western blot (anti-Flag, anti-HA); IR800 signal relative to CXCR4(D187C)-vMIP-II(W5C) set to 100%
[2] = molecular target: HA-CXCR4(D20R)-Rluc3 (UniProt P61073)

| Substance | fraction of extracted receptor cross-linked [1] [%] | β-arrestin-2 recruitment to HA-CXCR4-Rluc3 (BRET2, HEK293T cells), pEC50 [2] |
| --- | --- | --- |
| vMIP-II(W5C) (ligand) | 100 |  |
| CXCL12(R47E) (from UniProt P48061-2 22-89) (ligand) |  | 5.89 -log10(EC50) |
